For the series, the system named is MS2 coat protein. Nature of the series: apparent KD of MS2 coat protein; designed switch direction (-1 OFF switch, 1 ON switch): -1; higher = weaker reporter binding. The gist of the method:
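RNA switches sharing common flanks were transcribed by stalled E. coli RNA polymerase on Illumina chips. A doubling series of SNAP-549-labelled MS2 coat protein, from 0.7 or 1.5 nM to 3 µM, was applied in Tris-HCl pH 7.5 buffer with KCl, MgCl2, BSA, DTT, tRNA and Tween-20. Each step lasted 0.8–1.5 h at the bottom of the series and 10–20 min at the top. Normalised cluster fluorescence was curve-fitted, giving apparent KD as the per-design median over clusters.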

The mark [1] stands for this setting: input ligand: microRNA oligo, concentration not stated.
The mark [2] stands for this setting: Eterna round: R95, input ligand: FMN 200 uM.
The mark [3] stands for this setting: Eterna round: R95, input ligand: microRNA oligo, concentration not stated.
Where [4] appears, read: Eterna round: R95, input ligand: none.

For the sequence “AAUUAUUUUUGAGGAUAUCGUGGUGAAACACCACGAGAAGGCGAGAUACACAUGAGGAUCACCCAUGUGAGCCUGAUGCUUAUG [Ex NG1 #51] (Eterna round: R96, puzzle: Exclusion NG 1)”, the “apparent KD of MS2 coat protein” value under setting [1] was 0.0115 µM.
Take “AAUUUACAUGAGGAUCACCCAUGUGAGGAUAUAUAUAUAUAUUUGUUAUUGUAUGUUUGUAGAAGGCGCGUGAU [JR_Exc1_Sub033] (Eterna round: R97, puzzle: Exclusion 1)”: the “apparent KD of MS2 coat protein” value by setting is: (input ligand: FMN 200 uM) 0.033 µM; (input ligand: none) 0.0392 µM.
In the same order, the values of “AAUUUGCAAGCGAGAUCCCACAUGAGGAUCACCCAUGUGCUCGUCUUAUAAGGUACUGUGACGAGAGUCACGGUACC [Mat - Sensor, turn-off var - Eli Mod - D91] (Eterna round: R97, puzzle: Sensor, turn-off variant 1)” are 0.0156 µM and 0.0121 µM.
In the same order, the values of “ACAAAGCGAGGAUAUACACAGGUGUCCUGGGCGUCAAAUCGACAUGAGGAUCACCCAUGUAGAAGGCGCAAUAG [Diedated] (Eterna round: R97, puzzle: Exclusion 2)” are 0.0449 µM and 0.0369 µM.
“ACAAAGGACAUGAGGAUCACCCAUGUGGUGCACAAGUCCAGCAAGGAUAUCCAAGUCCCAUAAACGGAGAAGGUGCAUAAUAAG [Inesxeed] (Eterna round: R96, puzzle: Exclusion NG 3)”: the “apparent KD of MS2 coat protein” value was determined as 0.283 µM (input ligand: FMN 200 uM), 0.0866 µM under setting [1] and 0.113 µM (input ligand: none).
Regarding “ACAAGCUAACUCAUAUCUUACAUGAGGAUCACCCAUGUUUUUUCAAUUUUGUUUGGUCUCCUUUGUGCUCGUCUUAU [JR_STOV1_Sub052] (Eterna round: R97, puzzle: Sensor, turn-off variant 1)”, the “apparent KD of MS2 coat protein” value reads like this: (input ligand: FMN 200 uM) 0.066 µM; (input ligand: none) 0.0649 µM.
“ACAAGCUUGUAAUCAUUUAACAUGAGGAUCACCCAUGUAAAUGGAAGAACCAAUUUGAUAUGAUUUACUCGUCUUAU [JR_STOV1_Sub009] (Eterna round: R97, puzzle: Sensor, turn-off variant 1)”: the “apparent KD of MS2 coat protein” value worked out at 0.257 µM (input ligand: FMN 200 uM) and 0.267 µM (input ligand: none).
“ACAAGCUUUACGAUCCUCUACAUGAGGAUCACCCAUGUGCUCGUAUUGUUUAGUACUAUCACGAAAGUGAUAGUACA [Sensor, turn off variant 1 v.5] (Eterna round: R97, puzzle: Sensor, turn-off variant 1)”: the “apparent KD of MS2 coat protein” value (input ligand: FMN 200 uM) amounted to 0.467 µM and the “apparent KD of MS2 coat protein” value (input ligand: none) turned out to be 1.09 µM.
For “ACAAGCUUUGUUGUGGGUGACAUGAGGAUCACCCAUGUUUGCCACGUCUUGUGGGCCCGGGCCCGCGGCCCGGGCCC [-42.9, -63.9, A 13%] (Eterna round: R97, puzzle: Sensor, turn-off variant 1)”, the “apparent KD of MS2 coat protein” value by setting is: (input ligand: FMN 200 uM) 0.0503 µM; (input ligand: none) 0.0551 µM.
Turning to “ACAAGCUUUUAGAUUCUUAACAUGAGGAUCACCCAUGUGCUCGUCUUAUUGGCCGGCGGGCCGCCGGAAAAGCUUGU (Eterna round: R97, puzzle: Sensor, turn-off variant 1)”, the “apparent KD of MS2 coat protein” value by setting is: (input ligand: FMN 200 uM) 0.283 µM; (input ligand: none) 0.408 µM.
As to “ACAAGCUUUUUGUUCGUCUUAUAAUAAUAAAUAAAGAUAACAUGAGGAUCACCCAUGUAACAAAGACGGCCUCAUGU [Sesor Array 19 - Jieux - Sensor v3, turn-off variant 2] (puzzle: Sensor v3, turn-off variant 2)”, the “apparent KD of MS2 coat protein” value came out at 0.166 µM under setting [2], 0.0117 µM under setting [3] and 0.112 µM under setting [4].
As to “ACAAGCUUUUUGUUCGUCUUAUACACUCCUAAUAAGACAACAUGAGGAUCACCCAUGUAACAAACACGAACUCAUGU [Sesor Array 7 - Jieux - Sensor v3, turn-off variant 2] (puzzle: Sensor v3, turn-off variant 2)”, the “apparent KD of MS2 coat protein” value came out at 0.174 µM under setting [2], 0.369 µM under setting [3] and 0.195 µM under setting [4].
On to “ACACAACAUGAGGAUCACCCAUGUCAGGAUAUGCAGAAGAAGAAGAAGAGAAGAGAGAGCAGAAGGGACAACAC [Ex 1 M3] (puzzle: Exclusion 1)”, for which the “apparent KD of MS2 coat protein” value under setting [2] turned out to be 0.0417 µM, the “apparent KD of MS2 coat protein” value under setting [3] is 0.03 µM and the “apparent KD of MS2 coat protein” value under setting [4] was found to be 0.0335 µM.
For “ACACACACAGGAUAUCUUCCGCAUGACAUGAGGAUCACCCAUGUGUGCAUGCCCAAAAGUAGAGAAGGGUGUGUGU [eternacac ex5r4 #2] (Eterna round: R97, puzzle: Exclusion 5)”, the “apparent KD of MS2 coat protein” value was found to be 0.0262 µM (input ligand: FMN 200 uM) and 0.0292 µM (input ligand: none).
In the case of “ACACUGCGAGGAUAUACAUGAGGAUCACCCAUGUUUCGGUAGACAAGGUUAAUUUAAGGUAGAAGGCGCGUAUU [JR_Ex3_Sub009] (Eterna round: R97, puzzle: Exclusion 3)”, the “apparent KD of MS2 coat protein” value by setting is: (input ligand: FMN 200 uM) 0.173 µM; (input ligand: none) 0.0402 µM.
As to “ACAGCGUGAGGAUAUACAUGAGGAUCACCCAUGUAUGGCAGGUUAUCCUGUCGUGAGUGUAGAAGGCACGCUGU [Exclusion 3 - Oddities v.5 ( A small slide from ms2 to fmn)] (puzzle: Exclusion 3)”, under setting [3], the “apparent KD of MS2 coat protein” value worked out at 0.0154 µM.
“ACAUAUGACUAGGAUAUCACUAGCGAUAGCUAGUGAGAAGGAGUCACAUGAGGAUCACCCAUGUGCUCCAAUAA [Mod5 Ex6/6-A4 by Brourd] (Eterna round: R97, puzzle: Exclusion 6)”: the “apparent KD of MS2 coat protein” value was found to be 0.0163 µM (input ligand: FMN 200 uM) and 0.0151 µM (input ligand: none).
As to “ACAUGACCGCUAGGAUAUAGAUGACAUGAGGAUCACCCAUGUUGUCCCAUGUUGACGAUCACCGACUAGAAGGAGCCACCCAUG [ExNG2 5th] (Eterna round: R96, puzzle: Exclusion NG 2)”, the “apparent KD of MS2 coat protein” value is, setting by setting: (input ligand: FMN 200 uM) 0.0534 µM; under setting [1], 0.0346 µM; (input ligand: none) 0.0525 µM.
In the same order, the values of “ACAUGAGGAUCACCCAUGUCAGGCGGGUCCUCUCCGGCUGUUGAGGAUAUAGUCCGGUAUCCGCGCUAGAAGGUGAGGGCCGGC [Aenatbe mod 18] (Eterna round: R96, puzzle: Exclusion NG 3)” are 0.0181 µM, 0.0164 µM and 0.0202 µM.
The like results for “ACAUGAGGAUCACCCAUGUCAGGCGGGUCCUCUCCGGCUGUUGAGGAUAUAGUUCGGUAUCCGCGCUAGAAGGUGAGGGCCGGC [Aenatbe mod 21] (Eterna round: R96, puzzle: Exclusion NG 3)” were, in that order, 0.0151 µM, 0.00999 µM and 0.0171 µM.
Regarding “ACAUGAGGAUCACCCAUGUCCGGCUGGUCCGUCUCGGCUGUCGAGGAUAUAGCUCGGUGUCCGCGCUAGAAGGCGGGAGCCGGC [Aenatbe mod 83] (Eterna round: R96, puzzle: Exclusion NG 3)”, the “apparent KD of MS2 coat protein” value came to 0.0915 µM (input ligand: FMN 200 uM), 0.0647 µM under setting [1] and 0.0734 µM (input ligand: none).
On to “ACAUGAGGAUCACCCAUGUCCGGCUGGUCCGUUUCGGCUGUCGAGGAUAUAGUUCGGUGUCCGCGCUAGAAGGCGGGAGCCGGC [Aenatbe mod 62] (Eterna round: R96, puzzle: Exclusion NG 3)”, for which the “apparent KD of MS2 coat protein” value came to 0.21 µM (input ligand: FMN 200 uM), 0.0809 µM under setting [1] and 0.112 µM (input ligand: none).
Turning to “ACAUGAGGAUCACCCAUGUCCGGCUGGUCUGUCUCGGCUGUCGAGGAUAUAGCUCGGUAUCCGCGCUAGAAGGCGGGAGCCGGU [Aenatbe mod 91] (Eterna round: R96, puzzle: Exclusion NG 3)”, the “apparent KD of MS2 coat protein” value is, setting by setting: (input ligand: FMN 200 uM) 0.0767 µM; under setting [1], 0.0294 µM; (input ligand: none) 0.0488 µM.
For “ACAUGAGGAUCACCCAUGUCUGGCUGGUCUGCUCCGGUUGUUGAGGAUAUAGUCCGGUGUUCGCGCUAGAAGGUGAGGGCUGGA [Aenatbe mod 40] (Eterna round: R96, puzzle: Exclusion NG 3)”, the “apparent KD of MS2 coat protein” value was found to be 0.137 µM (input ligand: FMN 200 uM), 0.0964 µM under setting [1] and 0.131 µM (input ligand: none).
As to “ACAUGAGGAUCACCCAUGUCUGGCUGGUCUGUUCCGGCUGUCGAGGAUAUAGUCCGGUGUUCGCGCUAGAAGGUGAGGGCUGGA [Aenatbe mod 44] (Eterna round: R96, puzzle: Exclusion NG 3)”, the “apparent KD of MS2 coat protein” value reads like this: (input ligand: FMN 200 uM) 0.153 µM; under setting [1], 0.0686 µM; (input ligand: none) 0.0874 µM.
Take “ACAUGAGGAUCACCCAUGUGAAACCAAUGGCUGACUUUGAGCUAGGAUAUUUGUGCAUAUCAAACAAAGAAGGAGCAUUACUGG [Deportation 98 - Jieux - Exclusion NG 3] (Eterna round: R96, puzzle: Exclusion NG 3)”: under setting [1], the “apparent KD of MS2 coat protein” value was 0.0302 µM.
On to “ACAUGAGGAUCACCCAUGUGACAAUAAUGGCUGAUACAGAGACAGGAUAUAGGUGAAUAUCUAACCUAGAAGGGUCAUGACUGG [Deportation 71 - Jieux - Exclusion NG 3] (Eterna round: R96, puzzle: Exclusion NG 3)”, for which the “apparent KD of MS2 coat protein” value (input ligand: FMN 200 uM) amounted to 0.0348 µM, the “apparent KD of MS2 coat protein” value under setting [1] stood at 0.033 µM and the “apparent KD of MS2 coat protein” value (input ligand: none) stood at 0.054 µM.
In the same order, the values of “ACAUGAGGAUCACCCAUGUGCACGUAAUGGCUCAUGUAGAGUGAGGAUAUGCGUGACGAACGAGCGCAGAAGGCACAAGACUGG [Deportation 16 - Jieux - Exclusion NG 3] (Eterna round: R96, puzzle: Exclusion NG 3)” are 0.131 µM, 0.0578 µM and 0.0775 µM.

The record behind these values is the supplement of paper PMC9170038.
